Test results as given in US20100015637A1 (AbbVie / Abbott, published 2010).
Values belong to the molecule of their own block, whether it stands above or below them.

Key:
[1] = molecular target: human PlGF-1 comprising amino acids 1-137 produced in human embryonic kidney cells (human) (UniProt P49763); assay: Format 3 Quantikine ELISA, capture MAb264, detection Pb264; sFlt-1 4600 pmol/L (ratio 150)
[2] = molecular target: human PlGF-1 comprising amino acids 1-137 produced in human embryonic kidney cells (human) (UniProt P49763); assay: Format 3 Quantikine ELISA, capture MAb264, detection Pb264; sFlt-1 3067 pmol/L (ratio 100)
[3] = molecular target: human PlGF-1 comprising amino acids 1-137 produced in human embryonic kidney cells (human) (UniProt P49763); assay: Format 1 …, capture 2-826-335, detection 1-255-713; sFlt-1 153 pmol/L (ratio 5)
[4] = molecular target: human PlGF-1 comprising amino acids 1-137 produced in human embryonic kidney cells (human) (UniProt P49763); assay: Format 1 …, capture 2-826-335, detection 1-255-713; sFlt-1 2300 pmol/L (ratio 75)
[5] = molecular target: human PlGF-1 comprising amino acids 1-137 produced in human embryonic kidney cells (human) (UniProt P49763); assay: Format 3 Quantikine ELISA, capture MAb264, detection Pb264; sFlt-1 153 pmol/L (ratio 5)
[6] = molecular target: human PlGF-1 comprising amino acids 1-137 produced in human embryonic kidney cells (human) (UniProt P49763); assay: Format 2 …, capture MAb264, detection Pb264; sFlt-1 307 pmol/L (ratio 10)
[7] = molecular target: human PlGF-1 comprising amino acids 1-137 produced in human embryonic kidney cells (human) (UniProt P49763); assay: Format 2 …, capture MAb264, detection Pb264; sFlt-1 1227 pmol/L (ratio 40)
[8] = molecular target: human PlGF-1 comprising amino acids 1-137 produced in human embryonic kidney cells (human) (UniProt P49763); assay: Format 1 …, capture 2-826-335, detection 1-255-713; sFlt-1 4600 pmol/L (ratio 150)
[9] = molecular target: recombinant human PlGF-1 (comprising amino acids 1-131) expressed in E. coli (R&D Systems) (human) (UniProt P49763); assay: … sandwich, capture MAb255, detection pAb264; antigen 15 pg/mL
[10] = molecular target: recombinant human PlGF-1 (comprising amino acids 1-131) expressed in E. coli (R&D Systems) (human) (UniProt P49763); assay: … sandwich, capture MAb255, detection MAb826; antigen 750 pg/mL
[11] = molecular target: T1, CHO human PlGF-1 comprising amino acids 1-137 (human PlGF-1-His (1-131), CHO 6305) (human, UniProt P49763 19-221, N-glycans at N21 (completely glycosylated) and N89 (partially glycosylated)); assay: … sandwich, capture MAb826, detection pAb264; antigen 1500 pg/mL
T1 construct: Mature human PlGF-1 with 6xHis tag (137 amino acids); also called CHO (1-137)
T1 sequence: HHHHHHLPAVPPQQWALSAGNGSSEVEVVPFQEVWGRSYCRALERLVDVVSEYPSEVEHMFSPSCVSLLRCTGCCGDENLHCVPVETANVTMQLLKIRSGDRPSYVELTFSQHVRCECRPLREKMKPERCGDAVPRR

[12] = molecular target: T2, human PlGF-1 comprising amino acids 1-137 produced in human embryonic kidney cells (human, UniProt P49763 19-221); assay: as above
T2 construct: Mature human PlGF-1 with 6xHis tag; also called HEK (1-137); full length HEK human PlGF-1 (1-137)
T2 sequence: T1 sequence

[13] = molecular target: T3, human PlGF-1 fragment (comprising amino acids 17-131) produced in human embryonic kidney cells (human, UniProt P49763 35-221); assay: as above
T3 sequence: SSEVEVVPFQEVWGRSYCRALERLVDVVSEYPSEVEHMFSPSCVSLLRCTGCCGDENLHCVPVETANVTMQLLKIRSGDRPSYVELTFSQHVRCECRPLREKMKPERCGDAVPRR

[14] = molecular target: T4, CHO human PlGF-1 fragment (comprising amino acids 17-131; ATCC PTA-8540) (human, UniProt P49763 35-221); assay: as above
T4 sequence: T3 sequence

[15] = molecular target: recombinant human PlGF-1 (comprising amino acids 1-131) expressed in E. coli (R&D Systems) (human) (UniProt P49763); assay: … sandwich, capture MAb826, detection pAb264; antigen 15 pg/mL
[16] = molecular target: recombinant human PlGF-1 (comprising amino acids 1-131) expressed in E. coli (R&D Systems) (human) (UniProt P49763); assay: … sandwich, capture MAb826, detection pAb264; antigen 60 pg/mL
[17] = molecular target: T1, CHO human PlGF-1 comprising amino acids …; assay: … sandwich, capture MAb826, detection pAb264; antigen 750 pg/mL
[18] = molecular target: T2, human PlGF-1 comprising amino acids …; assay: as above
[19] = molecular target: T3, human PlGF-1 fragment (comprising amino …); assay: as above
[20] = molecular target: T4, CHO human PlGF-1 fragment (comprising …); assay: as above

- % Inhibition [1]: 81.6%
- PlGF-1 Measured [1]: 159 pg/mL
- % Inhibition [2]: 80.9%
- PlGF-1 Measured [2]: 166 pg/mL
- % Inhibition [3]: 64.1%
- PlGF-1 Measured [3]: 367 pg/mL
- % Inhibition [4]: 93.6%
- PlGF-1 Measured [4]: 65 pg/mL
- % Inhibition [5]: 24.6%
- PlGF-1 Measured [5]: 652 pg/mL
- % Inhibition [6]: 81.8%
- PlGF-1 Measured [6]: 143 pg/mL
- % Inhibition [7]: 92.9%
- PlGF-1 Measured [7]: 55.5 pg/mL
- % Inhibition [8]: 95%
- PlGF-1 Measured [8]: 51.3 pg/mL
Molecule: native sFlt-1, isolated from human placental tissue (from UniProt P17948 27-687) (receptor)

- RLU [9]: 47200 RLU
- RLU [10]: 780000 RLU
B1: monoclonal antibody 1-255-713 (produced by murine hybridoma cell line 1-255-713, ATCC PTA-8536) (antibody, mouse IgG2a, V domains shown)
VH: QVHLQQSGAELMKPGASVKISCKATGYTFSSYWIEWVKQRPGHGLEWIGEILPGSVSNNFNEKFKDKATLTADPSSNTAYIQVSSLTSEDSAVYYCARSTGFYYGGNYFDHWGQGTTLAVSS
VL: DVVMTQTPLSLPVSPGDQASISCRSSQSLVHSNGHTYLHWYLQKPGQSPKLLIYKVSNRFSGVPDRVSGSGSGTDFTLKISRVEAEDLGVYFCSQSTHVPPTFGGGTKLEIKR
notes: also called MAb255

- RLU [11]: 329000 RLU
- RLU [12]: 760000 RLU
- RLU [13]: 624000 RLU
- RLU [14]: 456000 RLU
- RLU [15]: 19600 RLU
- RLU [16]: 65500 RLU
- RLU [17]: 180000 RLU
- RLU [18]: 423000 RLU
- RLU [19]: 336000 RLU
- RLU [20]: 239000 RLU
B2: monoclonal antibody 2-826-335 (produced by murine hybridoma cell line 2-826-335, ATCC PTA-8539) (antibody, mouse IgG1, V domains shown)
VH: QVQLKQSGPGLVQPSQSLSITCTVSGFSLTTYGIHWVRQSPGKGLEWLGVMWSGGDTDYDAAFISRLSISKDNSKSQVFFKMNSLQANDTGIYYCARYRFYGMDYWGQGTSVTVSS
VL: AIQMTQSSSSFSVSLGDRVTITCKASEDIYNRFAWYQQKPGNAPRLLISGAASLEAGVPSRFSGSGSGQDYTLSITSLQTEDVATYYCQQYWSTPWTFGGGTKLEIKR
notes: also called MAb826
